Patent publication US20240294593A1 (Genentech, published 2024)
Residue numbers refer to the chain shown, from its start. In names and notes the source's numbering stands. Like-named read-outs stand apart in the source and are kept apart here.

B1: H1.1_L1 (antibody, human IgG1, kappa, V domains shown)
VH: EVQLVESGGGLVQPGGSLRLSCAASGFTFTSFGMHWVRQAPGKGLEWVSYISSGSSIIYYADSVKGRFTISRDNAKNSLYLQMNSLRAEDTAVYYCARGGRLVWSPDYWGQGTLVTVSS
VL: DIVMTQSPDSLAVSLGERATINCKSSQSLLNSGNQKNYLTWYQQKPGQPPKLLIYWASTRESGVPDRFTGSGSGTDFTLTISSLQAEDVAVYYCQNDYSYPFTFGSGTKLEIKR
notes: also called VH-S30T; Kabat 30T; copies: 2 + 2
B2: H1.2_L1 (antibody, human IgG1, kappa, V domains shown)
VH: B1 VH with T30A
VL: B1 VL
notes: also called VH-S30A; Kabat 30A; copies: 2 + 2
B3: H1.3_L1 (antibody, human IgG1, kappa, V domains shown)
VH: B1 VH with T30Q
VL: B1 VL
notes: also called VH-S30Q; Kabat 30Q; copies: 2 + 2
B4: H1.37_L1 (antibody, human IgG1, kappa, V domains shown)
VH: B1 VH with T30S, S52A
VL: B1 VL
notes: also called VH-S54A; Kabat 52A; copies: 2 + 2
B5: H1.38_L1 (antibody, human IgG1, kappa, V domains shown)
VH: B1 VH with T30S, S52Q
VL: B1 VL
notes: also called VH-S54Q; Kabat 52Q; copies: 2 + 2
B6: H1.39_L1 (antibody, human IgG1, kappa, V domains shown)
VH: B1 VH with T30S, S52G
VL: B1 VL
notes: also called VH-S54G; Kabat 52G; copies: 2 + 2
B7: H1.40_L1 (antibody, human IgG1, kappa, V domains shown)
VH: B1 VH with T30S, S52V
VL: B1 VL
notes: also called VH-S54V; Kabat 52V; copies: 2 + 2
B8: H1.41_L1 (antibody, human IgG1, kappa, V domains shown)
VH: B1 VH with T30S, S52H
VL: B1 VL
notes: also called VH-S54H; Kabat 52H; copies: 2 + 2
B9: H1.42_L1 (antibody, human IgG1, kappa, V domains shown)
VH: B1 VH with T30S, S52K
VL: B1 VL
notes: also called VH-S54K; Kabat 52K
B10: H1.43_L1 (antibody, human IgG1, kappa, V domains shown)
VH: B1 VH with T30S, S52Y
VL: B1 VL
notes: also called VH-S54Y; Kabat 52Y
B11: H1.44_L1 (antibody, human IgG1, kappa, V domains shown)
VH: B1 VH with T30S, S52E
VL: B1 VL
notes: also called VH-S54E; Kabat 52E
B12: H1.45_L1 (antibody, human IgG1, kappa, V domains shown)
VH: B1 VH with T30S, S53T
VL: B1 VL
notes: also called VH-S55T; Kabat 52aT
B13: H1.46_L1 (antibody, human IgG1, kappa, V domains shown)
VH: B1 VH with T30S, S53A
VL: B1 VL
notes: also called VH-S55A; Kabat 52aA
B14: H1.47_L1 (antibody, human IgG1, kappa, V domains shown)
VH: B1 VH with T30S, S53Q
VL: B1 VL
notes: also called VH-S55Q; Kabat 52aQ
B15: H1.48_L1 (antibody, human IgG1, kappa, V domains shown)
VH: B1 VH with T30S, S53G
VL: B1 VL
notes: also called VH-S55G; Kabat 52aG
B16: H1.49_L1 (antibody, human IgG1, kappa, V domains shown)
VH: B1 VH with T30S, S53V
VL: B1 VL
notes: also called VH-S55V; Kabat 52aV; copies: 2 + 2
B17: H1.50_L1 (antibody, human IgG1, kappa, V domains shown)
VH: B1 VH with T30S, S53H
VL: B1 VL
notes: also called VH-S55H; Kabat 52aH; copies: 2 + 2
B18: H1.51_L1 (antibody, human IgG1, kappa, V domains shown)
VH: B1 VH with T30S, S53K
VL: B1 VL
notes: also called VH-S55K; Kabat 52aK
B19: H1.52_L1 (antibody, human IgG1, kappa, V domains shown)
VH: B1 VH with T30S, S53Y
VL: B1 VL
notes: also called VH-S55Y; Kabat 52aY
B20: H1.53_L1 (antibody, human IgG1, kappa, V domains shown)
VH: B1 VH with T30S, S53E
VL: B1 VL
notes: also called VH-S55E; Kabat 52aE
B21: H1.54_L1 (antibody, human IgG1, kappa, V domains shown)
VH: B1 VH with T30S, G54A
VL: B1 VL
notes: also called VH-G56A; Kabat 53A; copies: 2 + 2
B22: H1.55_L1 (antibody, human IgG1, kappa, V domains shown)
VH: B1 VH with T30S, G54S
VL: B1 VL
notes: also called VH-G56S; Kabat 53S; copies: 2 + 2
B23: H1.56_L1 (antibody, human IgG1, kappa, V domains shown)
VH: B1 VH with T30S, G54T
VL: B1 VL
notes: also called VH-G56T; Kabat 53T; copies: 2 + 2
B24: H1.57_L1 (antibody, human IgG1, kappa, V domains shown)
VH: B1 VH with T30S, G54Q
VL: B1 VL
notes: also called VH-G56Q; Kabat 53Q; copies: 2 + 2
B25: H1.58_L1 (antibody, human IgG1, kappa, V domains shown)
VH: B1 VH with T30S, G54H
VL: B1 VL
notes: also called VH-G56H; Kabat 53; copies: 2 + 2
B26: H1.59_L1 (antibody, human IgG1, kappa, V domains shown)
VH: B1 VH with T30S, G54K
VL: B1 VL
notes: also called VH-G56K; Kabat 53; copies: 2 + 2
B27: H1.60_L1 (antibody, human IgG1, kappa, V domains shown)
VH: B1 VH with T30S, G54L
VL: B1 VL
notes: also called VH-G56L; Kabat 53; copies: 2 + 2
B28: H1.61_L1 (antibody, human IgG1, kappa, V domains shown)
VH: B1 VH with T30S, G54Y
VL: B1 VL
notes: also called VH-G56Y; Kabat 53; copies: 2 + 2
B29: H1.62_L1 (antibody, human IgG1, kappa, V domains shown)
VH: B1 VH with T30S, S55T
VL: B1 VL
notes: also called VH-S59T; Kabat 54; copies: 2 + 2
B30: H1.63_L1 (antibody, human IgG1, kappa, V domains shown)
VH: B1 VH with T30S, S55A
VL: B1 VL
notes: also called VH-S59A; Kabat 54; copies: 2 + 2
B31: H1.64_L1 (antibody, human IgG1, kappa, V domains shown)
VH: B1 VH with T30S, S55Q
VL: B1 VL
notes: also called VH-S59Q; Kabat 54; copies: 2 + 2
B32: H1.65_L1 (antibody, human IgG1, kappa, V domains shown)
VH: B1 VH with T30S, S55G
VL: B1 VL
notes: also called VH-S59G; Kabat 54; copies: 2 + 2
B33: H1.66_L1 (antibody, human IgG1, kappa, V domains shown)
VH: B1 VH with T30S, S55V
VL: B1 VL
notes: also called VH-S59V; Kabat 54; copies: 2 + 2
B34: H1.67_L1 (antibody, human IgG1, kappa, V domains shown)
VH: B1 VH with T30S, S55H
VL: B1 VL
notes: also called VH-S59H; Kabat 54; copies: 2 + 2
B35: H1.68_L1 (antibody, human IgG1, kappa, V domains shown)
VH: B1 VH with T30S, S55K
VL: B1 VL
notes: also called VH-S59K; Kabat 54; copies: 2 + 2
B36: H1.69_L1 (antibody, human IgG1, kappa, V domains shown)
VH: B1 VH with T30S, S55Y
VL: B1 VL
notes: also called VH-S59Y; Kabat 54; copies: 2 + 2
B37: H1.70_L1 (antibody, human IgG1, kappa, V domains shown)
VH: B1 VH with T30S, S55E
VL: B1 VL
notes: also called VH-S59E; Kabat 54; copies: 2 + 2
B38: H1.71_L1 (antibody, human IgG1, kappa, V domains shown)
VH: B1 VH with T30S, S56T
VL: B1 VL
notes: also called VH-S60T; Kabat 55; copies: 2 + 2
B39: H1.72_L1 (antibody, human IgG1, kappa, V domains shown)
VH: B1 VH with T30S, S56A
VL: B1 VL
notes: also called VH-S60A; Kabat 55; copies: 2 + 2

What was measured:
human PD-1-His [1] = target: T1, human PD-1-His (human, UniProt Q15116 25-167, limits assumed); assay: Octet
T1 construct: Antigen of the Octet assays; not shown: His tag
T1 sequence (Q15116 25-167 limits assumed): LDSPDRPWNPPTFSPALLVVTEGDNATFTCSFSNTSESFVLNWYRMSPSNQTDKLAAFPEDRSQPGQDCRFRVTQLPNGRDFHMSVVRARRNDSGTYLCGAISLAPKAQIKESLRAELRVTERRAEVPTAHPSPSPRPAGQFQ

human PD-1-His [2] = target: T1, human PD-1-His; assay: Octet; remark: listed apart in the source

| Binder | Kd (human PD-1-His [1]) | koff (human PD-1-His [1]) | kon (human PD-1-His [1]) | Kd (human PD-1-His [2]) | koff (human PD-1-His [2]) | kon (human PD-1-His [2]) |
| --- | --- | --- | --- | --- | --- | --- |
| B1 | 32.1 nM | 0.00407 s⁻¹ | 127000 M⁻¹ s⁻¹ |  |  |  |
| B2 | 35.6 nM | 0.00432 s⁻¹ | 121000 M⁻¹ s⁻¹ |  |  |  |
| B3 | 40 nM | 0.00472 s⁻¹ | 118000 M⁻¹ s⁻¹ |  |  |  |
| B4 |  |  |  | 56 nM | 0.00763 s⁻¹ | 136000 M⁻¹ s⁻¹ |
| B5 |  |  |  | 57.5 nM | 0.00776 s⁻¹ | 135000 M⁻¹ s⁻¹ |
| B6 |  |  |  | 115 nM | 0.0178 s⁻¹ | 154000 M⁻¹ s⁻¹ |
| B7 |  |  |  | 231 nM | 0.0293 s⁻¹ | 127000 M⁻¹ s⁻¹ |
| B8 |  |  |  | 74.6 nM | 0.0104 s⁻¹ | 140000 M⁻¹ s⁻¹ |
| B9 |  |  |  | 500 nM | 0.0265 s⁻¹ | 53000 M⁻¹ s⁻¹ |
| B10 |  |  |  | 665 nM | 0.148 s⁻¹ | 223000 M⁻¹ s⁻¹ |
| B11 |  |  |  | 183 nM | 0.0225 s⁻¹ | 123000 M⁻¹ s⁻¹ |
| B12 |  |  |  | 74.5 nM | 0.0091 s⁻¹ | 122000 M⁻¹ s⁻¹ |
| B13 |  |  |  | 41.9 nM | 0.00529 s⁻¹ | 126000 M⁻¹ s⁻¹ |
| B14 |  |  |  | 117 nM | 0.0159 s⁻¹ | 136000 M⁻¹ s⁻¹ |
| B15 |  |  |  | 20.1 nM | 0.00293 s⁻¹ | 146000 M⁻¹ s⁻¹ |
| B16 |  |  |  | 92.8 nM | 0.0136 s⁻¹ | 147000 M⁻¹ s⁻¹ |
| B17 |  |  |  | 24.2 nM | 0.00287 s⁻¹ | 119000 M⁻¹ s⁻¹ |
| B18 |  |  |  | 54.9 nM | 0.00567 s⁻¹ | 103000 M⁻¹ s⁻¹ |
| B19 |  |  |  | 33.1 nM | 0.00423 s⁻¹ | 128000 M⁻¹ s⁻¹ |
| B20 |  |  |  | 96 nM | 0.0283 s⁻¹ | 295000 M⁻¹ s⁻¹ |

| Binder | Kd (human PD-1-His [1]) | koff (human PD-1-His [1]) | kon (human PD-1-His [1]) | Kd (human PD-1-His [2]) | koff (human PD-1-His [2]) | kon (human PD-1-His [2]) |
| --- | --- | --- | --- | --- | --- | --- |
| B21 |  |  |  | 34.5 nM | 0.00432 s⁻¹ | 125000 M⁻¹ s⁻¹ |
| B22 |  |  |  | 33.9 nM | 0.00457 s⁻¹ | 135000 M⁻¹ s⁻¹ |
| B23 |  |  |  | 31.5 nM | 0.00407 s⁻¹ | 129000 M⁻¹ s⁻¹ |
| B24 |  |  |  | 30.9 nM | 0.00464 s⁻¹ | 150000 M⁻¹ s⁻¹ |
| B25 |  |  |  | 43.9 nM | 0.00544 s⁻¹ | 124000 M⁻¹ s⁻¹ |
| B26 |  |  |  | 37.6 nM | 0.00494 s⁻¹ | 131000 M⁻¹ s⁻¹ |
| B27 |  |  |  | 35.9 nM | 0.00458 s⁻¹ | 128000 M⁻¹ s⁻¹ |
| B28 |  |  |  | 41.5 nM | 0.00574 s⁻¹ | 138000 M⁻¹ s⁻¹ |
| B29 |  |  |  | 59.9 nM | 0.00774 s⁻¹ | 129000 M⁻¹ s⁻¹ |
| B30 |  |  |  | 42.4 nM | 0.00619 s⁻¹ | 146000 M⁻¹ s⁻¹ |
| B31 |  |  |  | 59.1 nM | 0.00783 s⁻¹ | 132000 M⁻¹ s⁻¹ |
| B32 |  |  |  | 61 nM | 0.00827 s⁻¹ | 136000 M⁻¹ s⁻¹ |
| B33 |  |  |  | 112 nM | 0.0129 s⁻¹ | 115000 M⁻¹ s⁻¹ |
| B34 |  |  |  | 49.2 nM | 0.00692 s⁻¹ | 141000 M⁻¹ s⁻¹ |
| B35 |  |  |  | 74 nM | 0.00808 s⁻¹ | 109000 M⁻¹ s⁻¹ |
| B36 |  |  |  | 59.6 nM | 0.00818 s⁻¹ | 137000 M⁻¹ s⁻¹ |
| B37 |  |  |  | 48 nM | 0.00674 s⁻¹ | 140000 M⁻¹ s⁻¹ |
| B38 |  |  |  | 45.8 nM | 0.00505 s⁻¹ | 110000 M⁻¹ s⁻¹ |
| B39 |  |  |  | 62.5 nM | 0.00701 s⁻¹ | 112000 M⁻¹ s⁻¹ |
